# Laboratory results from publication PMC3958346, “Clearance Kinetics and Matrix Binding Partners of the Receptor for Advanced Glycation End Products” (PLoS ONE, 2014).
# Where “and” joins values, the source holds several entries; their conditions need not be identical. Equal values may be shown once.
# Tests used:
# Assay in all cases: BLI; ForteBIO Octet; purified mouse sRAGE conjugated to amine-reactive sensor tips, matrix protein in solution in varying concentrations; 1800 s association, dissociation in PBS; fit to the 1:1 Langmuir model; constants printed for each analyte concentration
# Conditions in all cases: both partners purified
# [1] = target: Collagen I (Sigma product, species and catalogue number not printed (could be rat or bovine). Natural alpha1(I)2 alpha2(I) heterotrimer taken by convention, propeptides removed; hydroxyproline, hydroxylysine, gly)
# [2] = target: Collagen IV (Sigma product, species and catalogue number not printed (human placenta or mouse EHS are both likely). Common alpha1(IV)2 alpha2(IV) heterotrimer taken by convention, 7S domain kept; hydroxyproline, h)
# [3] = target: Laminin
binder,measurement,setting,value
"Mouse soluble RAGE (soluble receptor for advanced glycation end products) (natural protein, UniProt Q62151-1 22-330, looked up, Mouse soluble RAGE, residues 22-330, signal peptide cleaved off; mass 35742.30 Da; mouse membrane RAGE has a published length of 402 (NP_031451.2); Native protein from tissue; Coupled to amine-reactive sensor tips in one orientation, in solution in the other; also called sRAGE; mouse sRAGE; source: endotoxin removed with Detoxi-Gel polymyxin B resin) GGQNITARIGEPLVLSCKGAPKKPPQQLEWKLNTGRTEAWKVLSPQGGPWDSVARILPNGSLLLPATGIVDEGTFRCRATNRRGKEVKSNYRVRVYQIPGKPEIVDPASELTASVPNKVGTCVSEGSYPAGTLSWHLDGKLLIPDGKETLVKEETRRHPETGLFTLRSELTVIPTQGGTHPTFSCSFSLGLPRRRPLNTAPIQLRVREPGPPEGIQLLVEPEGGIVAPGGTVTLTCAISAQPPPQVHWIKDGAPLPLAPSPVLLLPEVGHEDEGTYSCVATHPSHGPQESPPVSIRVTETGDEGPAEGS",Kd,[1],3.51 nM and 1.62 nM and 1.84 nM
same,Kd,[2],2.57 nM and 3.59 nM and 4.81 nM
same,koff,[2],6.26e-05 s⁻¹ and 7.72e-05 s⁻¹ and 8.1e-05 s⁻¹
same,kon,[2],24400 M⁻¹ s⁻¹ and 21500 M⁻¹ s⁻¹ and 16700 M⁻¹ s⁻¹
same,koff,[3],0.000191 s⁻¹ and 0.000102 s⁻¹ and 8.02e-05 s⁻¹ and 0.000108 s⁻¹
same,kon,[3],75400 M⁻¹ s⁻¹ and 106000 M⁻¹ s⁻¹ and 136000 M⁻¹ s⁻¹ and 171000 M⁻¹ s⁻¹
